The source of these data is publication PMC9169858 (Proceedings of the National Academy of Sciences of the …, 2022).

This experiment deals with SARS-CoV-2 main protease (M^pro), pGEX4T-1 construct, GST removed by thrombin (SARS-CoV-2, Wuhan-Hu-1 (MN908947.3)). In words: BLI. The note with it: both partners purified.

B1: NB2E3 (VHH)
VHH: QVQLQESGGGSVQAGGSLRLSCAVSGFIATSCALGWFRQAPGKEREGIATITTDGTTYYVDSVKGRFTISQDNAKNTVALQMNSLKPEDTAMYYCKLCCSGQYCAWGQGTQVTVSS
Consider B1, for which the binding result is “binds”.

B2: NB1D10 (VHH)
VHH: QVQLQESGGGSVQAGGSLRLSCAVSGYSYCNYDLGWFRQAPGKEREGIATIDSDGNTYYVDSVKGRFTISQDNAKNTVALQMNSLKPEDTAMYYCKVGSIASSVPEVSCPPSAPFGYWGQGTQVTVSS
Regarding B2, the binding result was “binds”.
